Biological target: APC (UniProt P25054)
Assay: Flag co-IP, immunoblot
Details: reference: wild-type Flag:α-catenin; sites Y177

Substance: α-catenin (from UniProt P35221) Y177F
- binding against the reference: stronger

From publication PMC3841736
